Source: US9012617

Experiments:
EphA4 = assay: cell-based or functional assay
EphB2 = assay: cell-based or functional assay

Row | One phase association Tau (GPhosEphA ratio fluorescence after Ephrin addition) (EphA4) | One phase association Tau (GPhosEphB ratio fluorescence after Ephrin addition) (EphB2) | Substance
1 | 9.6 |  | pre-clustered EphrinA1-FC (Fc fusion)
2 |  | 9.78 | pre-clustered EphrinB2-FC (Fc fusion)
